Where two headings read alike, the source gives them in different places.

Assay [1] concerns the target Goat IgG. Nature of the assay: photo-crosslinking, 365 nm 2 hrs, SDS-PAGE (FIG. 6).
Assay [2] addresses Goat IgG. The description is as above. This is another data set of the same source.

Regarding “Protein L C* domain T46BPA (designed binder)”, the conjugation efficiency was 30 to 50% in assay [1] and 50% in assay [2].

The values above are taken from US20260043807A1.
